Source: patent US20250262210A1 (TRUSTEES OF COLUMBIA UNIVERSITY IN THE CITY OF NEW YORK, published 2025)

Key:
Experiment in all cases: IP/MS, LZTR1 R810W-FLAG, U87
[1] = biological target: HERC2 (human, UniProt O95714 1-4834)
How it was run: (§1)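 Extracted peptides in 3% acetonitrile/0.1% formic acid ran on a 50 cm C18 column into an Orbitrap Fusion, with MaxQuant identification and spectral counting.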

[2] = biological target: BUB1 (human, UniProt O43683 1-1085, limits assumed)
How it was run: as §1

[3] = biological target: T1, RALGAPB (human, UniProt Q86X10 1-1494, limits assumed)
T1 sequence (looked up): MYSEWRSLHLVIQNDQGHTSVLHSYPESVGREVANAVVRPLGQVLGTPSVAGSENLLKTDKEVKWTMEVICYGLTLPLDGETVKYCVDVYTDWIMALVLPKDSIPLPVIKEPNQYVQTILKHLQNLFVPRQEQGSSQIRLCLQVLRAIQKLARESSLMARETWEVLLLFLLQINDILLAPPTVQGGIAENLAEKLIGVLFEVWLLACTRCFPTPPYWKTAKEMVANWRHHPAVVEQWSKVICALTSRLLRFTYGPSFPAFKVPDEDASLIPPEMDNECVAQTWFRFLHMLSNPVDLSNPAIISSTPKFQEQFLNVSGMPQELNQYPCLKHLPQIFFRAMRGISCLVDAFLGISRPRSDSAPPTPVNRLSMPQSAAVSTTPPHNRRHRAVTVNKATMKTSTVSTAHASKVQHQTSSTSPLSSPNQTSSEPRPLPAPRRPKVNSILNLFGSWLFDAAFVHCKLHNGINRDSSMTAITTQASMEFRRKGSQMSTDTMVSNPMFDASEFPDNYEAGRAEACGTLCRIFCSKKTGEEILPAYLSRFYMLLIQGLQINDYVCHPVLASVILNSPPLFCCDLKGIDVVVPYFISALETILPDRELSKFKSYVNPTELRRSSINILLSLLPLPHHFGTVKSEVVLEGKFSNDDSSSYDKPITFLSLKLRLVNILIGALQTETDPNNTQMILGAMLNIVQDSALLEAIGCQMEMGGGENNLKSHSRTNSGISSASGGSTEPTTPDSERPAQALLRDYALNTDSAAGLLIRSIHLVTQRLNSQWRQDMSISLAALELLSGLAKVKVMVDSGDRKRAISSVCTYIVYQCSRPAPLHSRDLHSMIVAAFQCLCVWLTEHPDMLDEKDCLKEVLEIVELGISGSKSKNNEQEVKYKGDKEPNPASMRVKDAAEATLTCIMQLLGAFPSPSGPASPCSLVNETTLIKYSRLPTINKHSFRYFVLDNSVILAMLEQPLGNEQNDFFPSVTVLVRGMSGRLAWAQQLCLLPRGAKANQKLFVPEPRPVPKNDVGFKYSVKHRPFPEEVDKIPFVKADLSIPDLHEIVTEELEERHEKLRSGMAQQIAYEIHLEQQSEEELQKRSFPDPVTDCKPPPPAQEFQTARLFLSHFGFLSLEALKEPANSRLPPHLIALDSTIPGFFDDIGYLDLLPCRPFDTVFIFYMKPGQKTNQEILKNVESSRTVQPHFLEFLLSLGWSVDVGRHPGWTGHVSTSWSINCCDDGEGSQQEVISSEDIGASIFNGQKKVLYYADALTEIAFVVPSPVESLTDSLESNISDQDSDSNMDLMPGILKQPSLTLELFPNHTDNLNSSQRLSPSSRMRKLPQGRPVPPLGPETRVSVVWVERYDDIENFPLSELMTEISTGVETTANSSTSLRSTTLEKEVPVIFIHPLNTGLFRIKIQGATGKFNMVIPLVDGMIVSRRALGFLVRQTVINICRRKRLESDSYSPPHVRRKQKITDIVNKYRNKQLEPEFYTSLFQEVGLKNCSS
How it was run: as §1

Measured: binding result

HERC2, sequence (O95714 whole entry, the tested form may be a part): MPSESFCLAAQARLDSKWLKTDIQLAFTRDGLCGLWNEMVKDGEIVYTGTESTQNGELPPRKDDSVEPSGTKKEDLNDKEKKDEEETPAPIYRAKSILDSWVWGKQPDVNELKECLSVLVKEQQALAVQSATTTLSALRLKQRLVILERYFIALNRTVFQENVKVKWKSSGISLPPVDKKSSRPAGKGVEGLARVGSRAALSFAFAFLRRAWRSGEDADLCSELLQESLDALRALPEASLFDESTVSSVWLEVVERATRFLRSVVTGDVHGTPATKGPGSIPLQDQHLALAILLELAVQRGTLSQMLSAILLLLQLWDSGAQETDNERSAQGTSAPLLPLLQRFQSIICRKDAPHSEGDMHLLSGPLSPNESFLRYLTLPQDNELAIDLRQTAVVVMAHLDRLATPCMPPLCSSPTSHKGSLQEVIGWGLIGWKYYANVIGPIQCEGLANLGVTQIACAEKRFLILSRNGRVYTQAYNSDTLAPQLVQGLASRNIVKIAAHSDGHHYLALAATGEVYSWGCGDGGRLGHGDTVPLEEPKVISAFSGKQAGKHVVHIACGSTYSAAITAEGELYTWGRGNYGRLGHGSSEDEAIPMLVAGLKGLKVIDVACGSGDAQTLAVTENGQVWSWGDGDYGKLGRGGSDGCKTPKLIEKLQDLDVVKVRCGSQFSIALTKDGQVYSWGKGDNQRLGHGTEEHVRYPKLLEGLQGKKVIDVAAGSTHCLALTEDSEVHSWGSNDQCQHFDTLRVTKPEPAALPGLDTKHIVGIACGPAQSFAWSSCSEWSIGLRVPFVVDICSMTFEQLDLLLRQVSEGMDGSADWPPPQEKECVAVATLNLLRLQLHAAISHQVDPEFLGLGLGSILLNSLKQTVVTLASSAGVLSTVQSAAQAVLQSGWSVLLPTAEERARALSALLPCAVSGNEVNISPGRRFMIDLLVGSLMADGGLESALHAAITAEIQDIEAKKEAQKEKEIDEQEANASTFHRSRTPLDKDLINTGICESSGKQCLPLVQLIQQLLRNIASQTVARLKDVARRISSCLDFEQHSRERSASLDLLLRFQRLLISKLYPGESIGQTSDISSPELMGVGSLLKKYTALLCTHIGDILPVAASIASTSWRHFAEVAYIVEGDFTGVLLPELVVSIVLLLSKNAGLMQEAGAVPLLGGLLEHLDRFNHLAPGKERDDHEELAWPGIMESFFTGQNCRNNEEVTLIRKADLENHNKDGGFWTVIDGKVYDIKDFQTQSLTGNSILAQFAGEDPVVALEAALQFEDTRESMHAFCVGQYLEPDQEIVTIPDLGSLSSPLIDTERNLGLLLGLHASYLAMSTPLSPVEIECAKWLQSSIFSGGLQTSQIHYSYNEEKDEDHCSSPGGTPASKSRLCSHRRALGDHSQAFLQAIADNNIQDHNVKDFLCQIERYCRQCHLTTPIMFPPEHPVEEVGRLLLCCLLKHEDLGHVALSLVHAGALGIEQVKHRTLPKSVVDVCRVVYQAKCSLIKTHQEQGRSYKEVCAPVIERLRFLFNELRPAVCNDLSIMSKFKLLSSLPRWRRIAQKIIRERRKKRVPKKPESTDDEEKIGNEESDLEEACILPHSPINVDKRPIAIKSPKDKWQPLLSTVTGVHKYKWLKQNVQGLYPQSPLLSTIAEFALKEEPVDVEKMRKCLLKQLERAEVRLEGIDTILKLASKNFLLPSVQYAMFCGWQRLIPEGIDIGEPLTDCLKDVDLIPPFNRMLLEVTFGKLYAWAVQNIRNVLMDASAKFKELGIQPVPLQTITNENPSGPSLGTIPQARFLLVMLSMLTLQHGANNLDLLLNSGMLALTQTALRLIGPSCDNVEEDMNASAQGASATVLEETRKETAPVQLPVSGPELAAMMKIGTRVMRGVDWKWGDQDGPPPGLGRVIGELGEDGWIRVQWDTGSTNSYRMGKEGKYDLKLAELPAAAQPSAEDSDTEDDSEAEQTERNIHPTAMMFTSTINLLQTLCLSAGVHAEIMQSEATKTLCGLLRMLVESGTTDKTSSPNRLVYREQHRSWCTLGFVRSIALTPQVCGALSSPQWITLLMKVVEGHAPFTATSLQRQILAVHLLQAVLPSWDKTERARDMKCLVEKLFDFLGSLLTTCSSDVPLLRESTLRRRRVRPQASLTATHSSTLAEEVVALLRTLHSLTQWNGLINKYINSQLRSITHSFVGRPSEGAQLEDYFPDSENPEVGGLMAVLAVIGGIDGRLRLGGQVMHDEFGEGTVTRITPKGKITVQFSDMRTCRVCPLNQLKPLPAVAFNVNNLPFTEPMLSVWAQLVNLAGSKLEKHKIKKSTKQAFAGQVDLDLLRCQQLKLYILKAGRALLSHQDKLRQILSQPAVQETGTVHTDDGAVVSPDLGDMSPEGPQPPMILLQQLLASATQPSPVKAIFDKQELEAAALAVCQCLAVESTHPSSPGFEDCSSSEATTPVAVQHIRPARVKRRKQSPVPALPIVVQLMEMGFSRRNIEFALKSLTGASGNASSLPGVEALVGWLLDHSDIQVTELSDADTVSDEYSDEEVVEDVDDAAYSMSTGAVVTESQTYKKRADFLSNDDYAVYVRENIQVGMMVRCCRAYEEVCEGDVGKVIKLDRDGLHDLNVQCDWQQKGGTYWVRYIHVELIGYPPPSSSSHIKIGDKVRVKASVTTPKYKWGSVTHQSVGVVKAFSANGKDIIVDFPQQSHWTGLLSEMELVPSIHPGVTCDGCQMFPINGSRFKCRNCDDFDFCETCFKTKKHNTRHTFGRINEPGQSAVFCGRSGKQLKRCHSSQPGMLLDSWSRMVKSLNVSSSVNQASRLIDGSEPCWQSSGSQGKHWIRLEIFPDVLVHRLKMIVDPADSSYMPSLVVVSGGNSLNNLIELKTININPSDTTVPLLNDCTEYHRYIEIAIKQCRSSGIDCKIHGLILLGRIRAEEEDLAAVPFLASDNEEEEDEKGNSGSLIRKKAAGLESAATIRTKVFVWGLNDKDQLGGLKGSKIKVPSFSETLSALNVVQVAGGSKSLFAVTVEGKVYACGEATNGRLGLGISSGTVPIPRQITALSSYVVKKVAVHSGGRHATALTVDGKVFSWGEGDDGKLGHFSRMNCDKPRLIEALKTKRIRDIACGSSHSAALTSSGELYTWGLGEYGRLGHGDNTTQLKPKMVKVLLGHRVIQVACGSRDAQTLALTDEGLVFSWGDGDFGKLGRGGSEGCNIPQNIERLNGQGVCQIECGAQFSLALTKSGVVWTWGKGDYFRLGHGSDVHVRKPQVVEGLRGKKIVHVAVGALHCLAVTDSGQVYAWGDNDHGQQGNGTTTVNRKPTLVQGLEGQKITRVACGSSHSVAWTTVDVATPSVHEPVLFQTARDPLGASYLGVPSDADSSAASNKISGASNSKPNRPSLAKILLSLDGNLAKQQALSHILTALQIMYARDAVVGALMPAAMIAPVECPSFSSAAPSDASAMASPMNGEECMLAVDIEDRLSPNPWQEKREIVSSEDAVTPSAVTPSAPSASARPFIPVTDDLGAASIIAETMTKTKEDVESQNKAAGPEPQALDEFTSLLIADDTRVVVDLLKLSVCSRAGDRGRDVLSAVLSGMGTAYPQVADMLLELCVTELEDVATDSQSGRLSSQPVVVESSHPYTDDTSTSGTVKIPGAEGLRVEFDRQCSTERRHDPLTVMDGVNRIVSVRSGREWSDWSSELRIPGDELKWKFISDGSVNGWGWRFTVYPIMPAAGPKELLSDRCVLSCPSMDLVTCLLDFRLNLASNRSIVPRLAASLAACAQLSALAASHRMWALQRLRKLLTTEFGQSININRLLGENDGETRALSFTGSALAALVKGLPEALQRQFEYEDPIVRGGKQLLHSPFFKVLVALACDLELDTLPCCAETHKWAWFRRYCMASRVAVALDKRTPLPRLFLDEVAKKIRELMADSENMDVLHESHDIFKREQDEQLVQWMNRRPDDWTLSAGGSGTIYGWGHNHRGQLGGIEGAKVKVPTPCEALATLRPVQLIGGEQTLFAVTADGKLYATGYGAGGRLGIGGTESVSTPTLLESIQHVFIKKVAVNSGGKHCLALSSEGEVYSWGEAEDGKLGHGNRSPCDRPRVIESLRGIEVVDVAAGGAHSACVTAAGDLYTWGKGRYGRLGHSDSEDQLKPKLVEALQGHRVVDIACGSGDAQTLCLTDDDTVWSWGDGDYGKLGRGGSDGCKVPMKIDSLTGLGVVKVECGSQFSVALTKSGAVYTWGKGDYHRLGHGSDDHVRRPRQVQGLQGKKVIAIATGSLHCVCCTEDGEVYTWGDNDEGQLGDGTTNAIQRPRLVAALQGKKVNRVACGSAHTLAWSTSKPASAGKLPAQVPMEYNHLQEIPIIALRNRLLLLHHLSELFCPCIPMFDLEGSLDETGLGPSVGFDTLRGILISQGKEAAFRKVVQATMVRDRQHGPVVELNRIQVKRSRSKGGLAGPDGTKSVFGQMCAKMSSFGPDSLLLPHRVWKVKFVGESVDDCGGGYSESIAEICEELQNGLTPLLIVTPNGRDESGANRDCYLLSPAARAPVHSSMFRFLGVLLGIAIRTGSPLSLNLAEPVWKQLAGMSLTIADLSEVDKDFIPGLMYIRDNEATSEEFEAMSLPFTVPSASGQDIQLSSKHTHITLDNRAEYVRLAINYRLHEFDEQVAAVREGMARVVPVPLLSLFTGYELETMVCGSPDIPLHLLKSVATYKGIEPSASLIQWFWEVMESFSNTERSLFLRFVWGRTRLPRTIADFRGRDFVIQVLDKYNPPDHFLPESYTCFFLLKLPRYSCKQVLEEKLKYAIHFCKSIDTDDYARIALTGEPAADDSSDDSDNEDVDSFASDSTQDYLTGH

B1: LZTR1 R810W-FLAG (other, human, UniProt Q8N653 1-840, looked up)
chain: MAGPGSTGGQIGAAALAGGARSKVAPSVDFDHSCSDSVEYLTLNFGPFETVHRWRRLPPCDEFVGARRSKHTVVAYKDAIYVFGGDNGKTMLNDLLRFDVKDCSWCRAFTTGTPPAPRYHHSAVVYGSSMFVFGGYTGDIYSNSNLKNKNDLFEYKFATGQWTEWKIEGRLPVARSAHGATVYSDKLWIFAGYDGNARLNDMWTIGLQDRELTCWEEVAQSGEIPPSCCNFPVAVCRDKMFVFSGQSGAKITNNLFQFEFKDKTWTRIPTEHLLRGSPPPPQRRYGHTMVAFDRHLYVFGGAADNTLPNELHCYDVDFQTWEVVQPSSDSEVGGAEVPERACASEEVPTLTYEERVGFKKSRDVFGLDFGTTSAKQPTQPASELPSGRLFHAAAVISDAMYIFGGTVDNNIRSGEMYRFQFSCYPKCTLHEDYGRLWESRQFCDVEFVLGEKEECVQGHVAIVTARSRWLRRKITQARERLAQKLEQEAAPVPREAPGVAAGGARPPLLHVAIREAEARPFEVLMQFLYTDKIKYPRKGHVEDVLLIMDVYKLALSFQLCRLEQLCRQYIEASVDLQNVLVVCESAARLQLSQLKEHCLNFVVKESHFNQVIMMKEFERLSSPLIVEIVRRKQQPPPRTPLDQPVDIGTSLIQDMKAYLEGAGAEFCDITLLLDGHPRPAHKAILAARSSYFEAMFRSFMPEDGQVNISIGEMVPSRQAFESMLRYIYYGEVNMPPEDSLYLFAAPYYYGFYNNRLQAYCKQNLEMNVTVQNVLQILEAADKTQALDMKRHCLHIIVHQFTKVSKLPTLWSLSQQLLLDIIDSLASHISDKQCAELGADI
notes: Stably expressed in U87 cells by lentivirus; also called LZTR1-FLAG-R810W; LZTR1 RW; not shown: FLAG tag
binds: all assays above
